Values quoted from earlier work, collected in publication PMC8268101.

Target: C1q (Homo sapiens) (UniProt P02745)
Experiment: SPR

Sequence of UniProt P02745 (P02745 23-245, chain 1 of 3): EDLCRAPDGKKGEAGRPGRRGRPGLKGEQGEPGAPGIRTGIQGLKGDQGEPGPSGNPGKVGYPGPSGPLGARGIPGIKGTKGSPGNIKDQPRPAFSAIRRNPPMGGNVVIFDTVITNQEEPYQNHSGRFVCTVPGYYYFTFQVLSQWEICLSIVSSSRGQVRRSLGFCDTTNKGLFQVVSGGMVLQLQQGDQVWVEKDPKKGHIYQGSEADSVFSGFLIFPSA
Sequence of UniProt P02745 (P02746 28-253, chain 2 of 3, further chain): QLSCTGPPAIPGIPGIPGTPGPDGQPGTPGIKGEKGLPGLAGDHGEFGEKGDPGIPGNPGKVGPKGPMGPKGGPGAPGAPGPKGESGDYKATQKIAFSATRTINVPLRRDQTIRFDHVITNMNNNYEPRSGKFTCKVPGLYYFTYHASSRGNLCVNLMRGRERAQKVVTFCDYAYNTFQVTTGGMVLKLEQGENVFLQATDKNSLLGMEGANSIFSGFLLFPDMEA
Sequence of UniProt P02745 (P02747 29-245, chain 3 of 3, further chain): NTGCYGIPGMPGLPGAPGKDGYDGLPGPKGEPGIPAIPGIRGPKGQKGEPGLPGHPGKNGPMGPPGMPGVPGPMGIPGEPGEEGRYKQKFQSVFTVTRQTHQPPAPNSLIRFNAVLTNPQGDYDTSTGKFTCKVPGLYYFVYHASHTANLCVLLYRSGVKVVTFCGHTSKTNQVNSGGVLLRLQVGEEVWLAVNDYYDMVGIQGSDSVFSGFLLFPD

For RAGE (from UniProt Q15109), the Kd is given as 5.6 µM.
